Experimental data from the RNAGym collection of RNA variant scans (doi:10.7554/elife.90254).

B1: LINE1-full (parent)
chain: UACGUAGGUGGUUUUCCCCUGAUAGUGCUAAGGGGGCCUGGAAGUUUGGACUGGGCAGAGCUCAACACAGCGUGGCAAAGUGGCUGUGGCUAGACUGCCUCUCUGGAUUCCUCGUCACUCAGCAGGGCAUCUCUGAGAGAAAUGCC

Variants of: B1
Experiment: self-cleavage, relative activity (ratio to wild type); higher = more cleavage; in vitro, sequencing; the parent is a self-cleaving ribozyme

Row | Variant | self-cleavage
1 | A6G U20A | 1.05
2 | A6G U23C | 0.93
3 | A6G U26C | 0.9
4 | A6G U29C | 0.74
5 | A6G U39A | 0.6
6 | A6G U45C | 0.5
7 | A6G U45G | 0.97
8 | A6G U46A | 0.94
9 | A6G U46C | 0.8
10 | A6G U52A | 0.43
11 | A6G U62C | 0.18
12 | A6G U62G | 0.11
13 | A6G U73C | 1.34
14 | A6G U81A | 1.47
15 | A6G U87C | 0.15
16 | A6G U96A | 0.2
17 | A6G U96C | 0.41
18 | A6G U100G | 0.95
19 | A6G U102C | 0.68
20 | A6G U104A | 0.73
21 | A6G U108C | 0.79
22 | A6G U109C | 0.71
23 | A6G U112A | 0.95
24 | A6G U112C | 0.96

Row | Variant | self-cleavage
25 | A6G U115A | 0.64
26 | A6G U115G | 2.04
27 | A6G U119A | 1.52
28 | A6G U130C | 0.81
29 | A6G U132A | 1.04
30 | A6G U134G | 0.8
31 | A6G U143C | 0.57
32 | A6U | 0.99
33 | A6U A22G | 0.87
34 | A6U A42G | 0.58
35 | A6U A50G | 0.72
36 | A6U A57G | 0
37 | A6U A57U | 0.08
38 | A6U A65G | 0.26
39 | A6U A65U | 0.33
40 | A6U A78G | 0.77
41 | A6U A79G | 0.8
42 | A6U A107G | 1.05
43 | A6U A124G | 0.6
44 | A6U A129U | 1.52
45 | A6U A138G | 1.15
46 | A6U A140G | 0.77
47 | A6U A141G | 0.94
48 | A6U C56U | 0.21

Row | Variant | self-cleavage
49 | A6U C63G | 0.19
50 | A6U C95A | 0.07
51 | A6U C133U | 1.04
52 | A6U C145U | 0.48
53 | A6U G34U | 1.02
54 | A6U G75U | 0.53
55 | A6U G97A | 0.12
56 | A6U G127A | 0.59
57 | A6U U12C | 1.43
58 | A6U U14C | 0.92
59 | A6U U15A | 0.63
60 | A6U U15C | 1.09
61 | A6U U20A | 1.21
62 | A6U U20C | 1.19
63 | A6U U23A | 0.26
64 | A6U U23C | 1.31
65 | A6U U39A | 1.16
66 | A6U U39C | 0.84
67 | A6U U45C | 1.35
68 | A6U U46C | 0.14
69 | A6U U52A | 1
70 | A6U U73A | 1.54
71 | A6U U87A | 0.15
72 | A6U U87C | 0.16

Row | Variant | self-cleavage
73 | A6U U91C | 0.52
74 | A6U U96C | 0.09
75 | A6U U100A | 0.52
76 | A6U U100C | 0.76
77 | A6U U102C | 0.68
78 | A6U U104A | 1.16
79 | A6U U104G | 0.48
80 | A6U U119A | 1.74
81 | A6U U143G | 1.12
82 | G7A A22G | 1.36
83 | G7A A22U | 0.73
84 | G7A A30G | 0.84
85 | G7A A57U | 0.07
86 | G7A A78G | 1.12
87 | G7A A79G | 0.61
88 | G7A A94G | 0.14
89 | G7A A94U | 0
90 | G7A A121G | 1.18
91 | G7A A129C | 1.07
92 | G7A A129G | 1.85
93 | G7A G8C | 0
94 | G7A G89A | 0.02
95 | G7A G97A | 0.1
96 | G7A G127A | 1.3

Row | Variant | self-cleavage
97 | G7A U14C | 0.88
98 | G7A U20A | 0.96
99 | G7A U39C | 0.83
100 | G7A U46A | 1.23
101 | G7A U73A | 1.31
102 | G7A U85C | 0.11
103 | G7A U87A | 0.04
104 | G7A U87C | 0.07
105 | G7A U104A | 1.11
106 | G7A U104C | 1.15
107 | G7A U108C | 1.57
108 | G7A U109A | 1.49
109 | G7A U112C | 1.22
110 | G7A U132C | 1.2
111 | G7A U134C | 1.17
112 | G7C A142C | 1.1
113 | G7C U85A | 0.2
114 | G7C U91C | 0
115 | G7U A64G | 0.35
116 | G7U A69G | 0.94
117 | G7U A77U | 1.04
118 | G7U A78G | 0.88
119 | G7U A79G | 0.87
120 | G7U A94G | 0.36

Row | Variant | self-cleavage
121 | G7U A138G | 1.31
122 | G7U A140U | 1.34
123 | G7U A141G | 1.62
124 | G7U C123G | 1.13
125 | G7U G11C | 1.02
126 | G7U U14C | 1.39
127 | G7U U15A | 0.97
128 | G7U U39A | 1.67
129 | G7U U46C | 0.47
130 | G7U U62C | 0.04
131 | G7U U73A | 1.14
132 | G7U U104C | 0.9
133 | G8A | 1.45
134 | G8A A22G | 1
135 | G8A A30G | 0.67
136 | G8A A43G | 1.08
137 | G8A A57U | 0.16
138 | G8A A64G | 0.42
139 | G8A A69C | 0.04
140 | G8A A79G | 1.36
141 | G8A A117C | 1.03
142 | G8A A124G | 1.04
143 | G8A A138G | 2.47
144 | G8A C37A | 0.87

Row | Variant | self-cleavage
145 | G8A C61U | 0.06
146 | G8A C113A | 1.31
147 | G8A C120U | 2.87
148 | G8A G34U | 1.22
149 | G8A G44A | 1.08
150 | G8A G49A | 1.07
151 | G8A G70A | 0.17
152 | G8A G82A | 1.71
153 | G8A G125U | 1.53
154 | G8A G135A | 1.23
155 | G8A U9C | 0.63
156 | G8A U12C | 1.17
157 | G8A U15C | 1.97
158 | G8A U47C | 1.82
159 | G8A U85C | 0.25
160 | G8A U87C | 0.19
161 | G8A U91C | 0.69
162 | G8A U96A | 0.08
163 | G8A U96C | 0.15
164 | G8A U109C | 1.21
165 | G8A U112C | 1.03
166 | G8A U115C | 1.33
167 | G8C | 1.66
